These results are taken from paper PMC1390689.

In the data set the target is T1, GSThPif1ΔN (Homo sapiens, UniProt Q9H611 167-641).
T1 sequence: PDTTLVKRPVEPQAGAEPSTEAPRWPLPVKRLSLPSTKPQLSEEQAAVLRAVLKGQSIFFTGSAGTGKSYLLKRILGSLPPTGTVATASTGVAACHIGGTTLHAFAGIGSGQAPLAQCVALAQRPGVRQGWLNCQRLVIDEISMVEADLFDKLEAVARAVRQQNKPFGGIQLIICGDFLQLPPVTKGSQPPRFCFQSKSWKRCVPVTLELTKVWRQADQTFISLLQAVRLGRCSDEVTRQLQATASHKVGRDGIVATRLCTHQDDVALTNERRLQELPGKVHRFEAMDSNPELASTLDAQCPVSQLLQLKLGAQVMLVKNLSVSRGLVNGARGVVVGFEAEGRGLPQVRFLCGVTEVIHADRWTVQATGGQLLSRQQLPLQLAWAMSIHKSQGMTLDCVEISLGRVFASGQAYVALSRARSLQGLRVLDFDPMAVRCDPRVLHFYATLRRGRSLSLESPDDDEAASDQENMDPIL
Description: EMSA.

As for TTAGGGTTAGGGTTAGGG (ssDNA) [tel18], the binding result was “binds”.
